We go through three substances from article PMC4148482.

Assay [1] concerns the target Aβ1–42 labelled at the N-terminus with HiLyte Fluor 555 (Aβ555) (human) (UniProt P05067).
Assay [2] deals with His-tagged Hsp20 wild type (UniProt O14558). The assay can be described thus: peptide array overlay (IB: His), spot densitometry. The settings on record: typical of n = 3; parent: est. 100; read off a plot.

“Hsp20 N-terminal 25-mer peptide, S16D variant (in solution)” returned a fold decrease in efficiency in disrupting the formation of Aβ555 fibrils and globular structures (self-quenching), against full-length S16D in assay [1] of 2 fold.
As for “Aβ1–42 25mer peptide 1 (D1–G25; array spot) A21”, in assay [2], the percent of parent (% Control (WT)) amounted to 110.
Take “Aβ1–42 25mer peptide 1 (D1–G25; array spot) A2”: the percent of parent (% Control (WT)) in assay [2] turned out to be 77.
